Reference: article PMC4760221, “Phosphorylation Regulates the Endocytic Function of the Yeast Dynamin-Related Protein Vps1” (Molecular and Cellular Biology, 2015)

B1: His-tagged Vps1 wild type (natural protein, S. cerevisiae, UniProt P21576 1-704, looked up)
chain: MDEHLISTINKLQDALAPLGGGSQSPIDLPQITVVGSQSSGKSSVLENIVGRDFLPRGTGIVTRRPLVLQLINRRPKKSEHAKVNQTANELIDLNINDDDKKKDESGKHQNEGQSEDNKEEWGEFLHLPGKKFYNFDEIRKEIVKETDKVTGANSGISSVPINLRIYSPHVLTLTLVDLPGLTKVPVGDQPPDIERQIKDMLLKYISKPNAIILSVNAANTDLANSDGLKLAREVDPEGTRTIGVLTKVDLMDQGTDVIDILAGRVIPLRYGYIPVINRGQKDIEHKKTIREALENERKFFENHPSYSSKAHYCGTPYLAKKLNSILLHHIRQTLPEIKAKIEATLKKYQNELINLGPETMDSASSVVLSMITDFSNEYAGILDGEAKELSSQELSGGARISYVFHETFKNGVDSLDPFDQIKDSDIRTIMYNSSGSAPSLFVGTEAFEVLVKQQIRRFEEPSLRLVTLVFDELVRMLKQIISQPKYSRYPALREAISNQFIQFLKDATIPTNEFVVDIIKAEQTYINTAHPDLLKGSQAMVMVEEKLHPRQVAVDPKTGKPLPTQPSSSKAPVMEEKSGFFGGFFSTKNKKKLAALESPPPVLKATGQMTERETMETEVIKLLISSYFSIVKRTIADIIPKALMLKLIVKSKTDIQKVLLEKLYGKQDIEELTKENDITIQRRKECKKMVEILRNASQIVSSV
notes: Vps1, dynamin-related protein of S. cerevisiae; also called recombinant Vps1; wild-type Vps1
B2: His-tagged Vps1 S599D (natural protein, S. cerevisiae, UniProt P21576 1-704, looked up)
chain: MDEHLISTINKLQDALAPLGGGSQSPIDLPQITVVGSQSSGKSSVLENIVGRDFLPRGTGIVTRRPLVLQLINRRPKKSEHAKVNQTANELIDLNINDDDKKKDESGKHQNEGQSEDNKEEWGEFLHLPGKKFYNFDEIRKEIVKETDKVTGANSGISSVPINLRIYSPHVLTLTLVDLPGLTKVPVGDQPPDIERQIKDMLLKYISKPNAIILSVNAANTDLANSDGLKLAREVDPEGTRTIGVLTKVDLMDQGTDVIDILAGRVIPLRYGYIPVINRGQKDIEHKKTIREALENERKFFENHPSYSSKAHYCGTPYLAKKLNSILLHHIRQTLPEIKAKIEATLKKYQNELINLGPETMDSASSVVLSMITDFSNEYAGILDGEAKELSSQELSGGARISYVFHETFKNGVDSLDPFDQIKDSDIRTIMYNSSGSAPSLFVGTEAFEVLVKQQIRRFEEPSLRLVTLVFDELVRMLKQIISQPKYSRYPALREAISNQFIQFLKDATIPTNEFVVDIIKAEQTYINTAHPDLLKGSQAMVMVEEKLHPRQVAVDPKTGKPLPTQPSSSKAPVMEEKSGFFGGFFSTKNKKKLAALEDPPPVLKATGQMTERETMETEVIKLLISSYFSIVKRTIADIIPKALMLKLIVKSKTDIQKVLLEKLYGKQDIEELTKENDITIQRRKECKKMVEILRNASQIVSSV
notes: Vps1, dynamin-related protein of S. cerevisiae, with S599D; also called S599D mutant; pKA972
B3: His-tagged Vps1 S599V (natural protein, S. cerevisiae, UniProt P21576 1-704, looked up)
chain: MDEHLISTINKLQDALAPLGGGSQSPIDLPQITVVGSQSSGKSSVLENIVGRDFLPRGTGIVTRRPLVLQLINRRPKKSEHAKVNQTANELIDLNINDDDKKKDESGKHQNEGQSEDNKEEWGEFLHLPGKKFYNFDEIRKEIVKETDKVTGANSGISSVPINLRIYSPHVLTLTLVDLPGLTKVPVGDQPPDIERQIKDMLLKYISKPNAIILSVNAANTDLANSDGLKLAREVDPEGTRTIGVLTKVDLMDQGTDVIDILAGRVIPLRYGYIPVINRGQKDIEHKKTIREALENERKFFENHPSYSSKAHYCGTPYLAKKLNSILLHHIRQTLPEIKAKIEATLKKYQNELINLGPETMDSASSVVLSMITDFSNEYAGILDGEAKELSSQELSGGARISYVFHETFKNGVDSLDPFDQIKDSDIRTIMYNSSGSAPSLFVGTEAFEVLVKQQIRRFEEPSLRLVTLVFDELVRMLKQIISQPKYSRYPALREAISNQFIQFLKDATIPTNEFVVDIIKAEQTYINTAHPDLLKGSQAMVMVEEKLHPRQVAVDPKTGKPLPTQPSSSKAPVMEEKSGFFGGFFSTKNKKKLAALEVPPPVLKATGQMTERETMETEVIKLLISSYFSIVKRTIADIIPKALMLKLIVKSKTDIQKVLLEKLYGKQDIEELTKENDITIQRRKECKKMVEILRNASQIVSSV
notes: Vps1, dynamin-related protein of S. cerevisiae, with S599V; also called S599V mutant; pKA971

Target: the molecule itself
Assay: negative-stain transmission electron microscopy; purified recombinant Vps1; oligomeric single rings and double-ring structures seen after negative staining
B1: binds.
B2: binds.
B3: binds.
